Data on one molecule can be found in paper PMC5063967, “EIN2-dependent regulation of acetylation of histone H3K14 and non-canonical histone H3K23 in ethylene signalling” (Nature Communications, 2016).

The target of this assay is T1, MBP-tagged EIN3 purified from E. coli (Arabidopsis, UniProt O24606 1-628).
T1 construct: also called ETHYLENE … 3; source: E. coli, purified
T1 sequence (looked up): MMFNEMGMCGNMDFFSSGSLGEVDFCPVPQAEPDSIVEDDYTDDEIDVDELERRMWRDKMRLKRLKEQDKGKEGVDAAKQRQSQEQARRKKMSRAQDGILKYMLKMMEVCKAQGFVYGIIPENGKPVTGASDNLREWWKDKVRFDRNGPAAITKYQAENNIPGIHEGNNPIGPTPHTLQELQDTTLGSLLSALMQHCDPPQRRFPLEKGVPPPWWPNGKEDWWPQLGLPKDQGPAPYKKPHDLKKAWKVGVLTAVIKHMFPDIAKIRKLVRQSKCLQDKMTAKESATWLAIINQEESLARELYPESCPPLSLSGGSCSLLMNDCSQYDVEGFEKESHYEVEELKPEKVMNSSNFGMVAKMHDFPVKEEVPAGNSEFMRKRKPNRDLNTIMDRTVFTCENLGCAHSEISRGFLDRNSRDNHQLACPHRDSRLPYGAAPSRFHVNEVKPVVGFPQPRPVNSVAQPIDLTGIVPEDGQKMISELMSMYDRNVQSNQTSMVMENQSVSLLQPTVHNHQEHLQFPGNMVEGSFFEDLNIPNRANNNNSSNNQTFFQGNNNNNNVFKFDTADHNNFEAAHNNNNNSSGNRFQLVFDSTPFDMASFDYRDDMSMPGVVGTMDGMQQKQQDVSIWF
Put plainly: pull-down; in vitro GST pull-down; GST-tagged ENAP1 and MBP-tagged EIN3 purified from E. coli. As to conditions: both partners purified.

B1: GST-ENAP1, full length, purified from E. coli (natural protein, Arabidopsis, UniProt Q8VZI9 1-249, looked up)
chain: METTPETQSKTHRLPAGREDWWSEDATATLIEAWGDRYVNLNRGNLRQNDWKEVADAVNSSHGNGRPKTDVQCKNRIDTLKKKYKTEKAKPLSNWCFFDRLDFLIGPVMKKSSGAVVKSALMNPNLNPTGSKSTGSSLDDDDDDDDDDEEDDDDAGDWGFVVRKHRKVEDVDSSEGSAFRELARSILKLGEAFERIEGKKQQMMIELEKQRMEVAKELELQRMNMLMEMQLELEKSKLGKRRAASGKKL
notes: ENAP1, encoded by at3g11100, Arabidopsis, full length; The methods of the pull-down name the fusion protein 'GST-CD3'; also called GST-labelled ENAP1; GST-tagged ENAP1; source: E. coli, purified (glutathione Sepharose 4B)
For the molecule B1, the binding result was “binds”.
